Assay [1] addresses T1, human PD-1 expressed on the surface of cells (NSO cells expressing human PD-1; MNFAT-luc2/PD-1 Jurkat cells) (human, UniProt Q15116 21-288).
T1 construct: also called cell surface PD-1; PDCD1 transfected NSO cells expressing PD-1
The assay is described as follows: FACS: inhibition of sPD-L2 binding to PD-1 on NSO cells; SM; SD 0.3125.

Assay [2] has as its target T1, human PD-1 expressed on the surface of …. The assay is described as follows: FACS saturation binding to NSO cells expressing PD-1; SM; SD 0.4890.
Assay [3] deals with T2, human LAG-3 expressed on NSO cells (human, UniProt P18627 29-525).
T2 sequence: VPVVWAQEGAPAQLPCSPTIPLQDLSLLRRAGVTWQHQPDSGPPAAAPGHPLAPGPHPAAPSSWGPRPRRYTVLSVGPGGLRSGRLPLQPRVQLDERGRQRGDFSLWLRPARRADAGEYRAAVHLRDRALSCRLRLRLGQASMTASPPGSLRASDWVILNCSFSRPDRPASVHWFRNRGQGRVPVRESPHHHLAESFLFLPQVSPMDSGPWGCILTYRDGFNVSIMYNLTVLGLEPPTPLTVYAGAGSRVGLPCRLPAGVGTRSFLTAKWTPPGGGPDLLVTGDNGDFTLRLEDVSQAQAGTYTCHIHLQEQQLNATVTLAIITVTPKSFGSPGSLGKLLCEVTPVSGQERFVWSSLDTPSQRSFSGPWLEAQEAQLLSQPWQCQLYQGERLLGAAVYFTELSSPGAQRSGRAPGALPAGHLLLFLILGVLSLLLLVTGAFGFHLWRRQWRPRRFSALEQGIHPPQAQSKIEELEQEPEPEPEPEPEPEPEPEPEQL
The assay is described as follows: FACS saturation binding to NSO cells expressing LAG-3; SM; SD 0.0547.

Assay [4] deals with T3, biotinylated-soluble human LAG-3-Fc fusion protein (human, UniProt P18627 23-450, biotinylated (site not stated)).
T3 construct: whole entry named; also called shLAG-3; shLAG-3-Fc; not shown: Fc
T3 sequence: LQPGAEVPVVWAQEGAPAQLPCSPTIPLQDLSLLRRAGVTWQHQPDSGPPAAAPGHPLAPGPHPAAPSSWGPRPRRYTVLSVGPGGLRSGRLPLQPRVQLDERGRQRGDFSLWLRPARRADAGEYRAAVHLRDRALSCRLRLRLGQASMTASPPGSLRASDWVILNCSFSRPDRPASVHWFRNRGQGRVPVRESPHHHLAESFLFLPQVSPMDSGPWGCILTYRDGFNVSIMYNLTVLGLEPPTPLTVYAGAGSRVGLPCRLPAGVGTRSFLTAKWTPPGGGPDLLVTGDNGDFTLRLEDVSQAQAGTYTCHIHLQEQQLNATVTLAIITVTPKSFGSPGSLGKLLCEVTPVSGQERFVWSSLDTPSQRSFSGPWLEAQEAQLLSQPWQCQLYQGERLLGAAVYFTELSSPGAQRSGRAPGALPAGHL
The assay is described as follows: FACS: inhibition of shLAG-3-Fc binding to MHC II on Daudi cells (column head prints EC50); SM; SD 0.1549.

For assay [5], the target named is T1, human PD-1 expressed on the surface of …. The assay is described as follows: FACS: inhibition of sPD-L1 binding to PD-1 on NSO cells; SM; SD 0.1302.
The target is the same in assay [6]. Briefly: FACS: inhibition of sPD-L2 binding to PD-1 on NSO cells; SM; SD 0.5438.
Assay [7] concerns the target T3, biotinylated-soluble human LAG-3-Fc …. The assay is described as follows: FACS: inhibition of shLAG-3-Fc binding to MHC II on Daudi cells (column head prints EC50); SM; SD 0.0571.
For assay [8], the target named is T1, human PD-1 expressed on the surface of …. The assay is described as follows: FACS: inhibition of sPD-L1 binding to PD-1 on NSO cells; SM; SD 0.3097.
Assay [9] addresses T2, human LAG-3 expressed on NSO cells. Briefly: FACS saturation binding to NSO cells expressing LAG-3; single experiment.
The target in assay [10] is T3, biotinylated-soluble human LAG-3-Fc …. Briefly: FACS: inhibition of shLAG-3-Fc binding to MHC II on Daudi cells (column head prints EC50); SM; SD 4.9817.
In assay [11] the target is T1, human PD-1 expressed on the surface of …. The assay is described as follows: FACS: inhibition of sPD-L1 binding to PD-1 on NSO cells; SM; SD 0.1018.
For assay [12] the target is unchanged. The assay is described as follows: FACS saturation binding to NSO cells expressing PD-1; single experiment.
Assay [13] has the same target. Briefly: FACS: inhibition of sPD-L2 binding to PD-1 on NSO cells; SM; SD 3.6847.
Assay [14] has as its target T2, human LAG-3 expressed on NSO cells. Briefly: FACS saturation binding to NSO cells expressing LAG-3; SM; SD 0.1969.
Assay [15] has as its target T3, biotinylated-soluble human LAG-3-Fc …. Briefly: FACS: inhibition of shLAG-3-Fc binding to MHC II on Daudi cells (column head prints EC50); SM; SD 0.2176.

The record followed here is US12534531 (MacroGenics, dated 2026).

T1 sequence (Q15116 21-288): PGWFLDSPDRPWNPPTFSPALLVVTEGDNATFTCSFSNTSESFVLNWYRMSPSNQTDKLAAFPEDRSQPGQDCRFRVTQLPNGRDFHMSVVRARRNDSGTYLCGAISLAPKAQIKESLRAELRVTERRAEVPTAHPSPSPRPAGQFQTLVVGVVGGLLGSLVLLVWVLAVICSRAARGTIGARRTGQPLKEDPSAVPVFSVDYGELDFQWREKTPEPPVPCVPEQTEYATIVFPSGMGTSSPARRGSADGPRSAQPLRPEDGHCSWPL

B1: DART I (bispecific antibody, human IgG4 S228P)
chain 1: DIQMTQSPSSLSASVGDRVTITCRASQDVSSVVAWYQQKPGKAPKLLIYSASYRYTGVPSRFSGSGSGTDFTLTISSLQPEDFATYYCQQHYSTPWTFGGGTKLEIKGGGSGGGGQVQLVQSGAEVKKPGASVKVSCKASGYSFTSYWMNWVRQAPGQGLEWIGVIHPSDSETWLDQKFKDRVTITVDKSTSTAYMELSSLRSEDTAVYYCAREHYGTSPFAYWGQGTLVTVSSGGCGGGEVAACEKEVAALEKEVAALEKEVAALEKESKYGPPCPPCPAPEFLGGPSVFLFPPKPKDTLYITREPEVTCVVVDVSQEDPEVQFNWYVDGVEVHNAKTKPREEQFNSTYRVVSVLTVLHQDWLNGKEYKCKVSNKGLPSSIEKTISKAKGQPREPQVYTLPPSQEEMTKNQVSLTCLVKGFYPSDIAVEWESNGQPENNYKTTPPVLDSDGSFFLYSRLTVDKSRWQEGNVFSCSVMHEALHNHYTQKSLSLSLG
chain 2: EIVLTQSPATLSLSPGERATLSCRASESVDNYGMSFMNWFQQKPGQPPKLLIHAASNQGSGVPSRFSGSGSGTDFTLTISSLEPEDFAVYFCQQSKEVPYTFGGGTKVEIKGGGSGGGGQVQLVQSGAEVKKPGASVKVSCKASGYTFTDYNMDWVRQAPGQGLEWMGDINPDNGVTIYNQKFEGRVTMTTDTSTSTAYMELRSLRSDDTAVYYCAREADYFYFDYWGQGTTLTVSSGGCGGGKVAACKEKVAALKEKVAALKEKVAALKE
In the case of B1, the IC50 in assay [1] was 1290 nM; in [4], 486 nM; in assay [5], 836 nM. Moreover, the EC50 came out at 1320 nM in assay [2] and 532 nM in [3].

B2: BSAB A (bispecific antibody)
heavy 1: QVQLVQSGAEVKKPGASVKVSCKASGYSFTSYWMNWVRQAPGQGLEWIGVIHPSDSETWLDQKFKDRVTITVDKSTSTAYMELSSLRSEDTAVYYCAREHYGTSPFAYWGQGTLVTVSSASTKGPSVFPLAPSSKSTSGGTAALGCLVKDYFPEPVTVSWNSGALTSGVHTFPAVLQSSGLYSLSSVVTVPSSSLGTQTYICNVNHKPSNTKVDKRVEPKSCEKTHTCPECPAPEAAGGPSVFLFPPKPKDTLMISRTPEVTCVVVDVSHEDPEVKFNWYVDGVEVHNAKTKPREEQYNSTYRVVSVLTVLHQDWLNGKEYKCKVSNKALPAPIEKTISKAKGQPREPQVYTLPPSREEMTKNQVSLTCEVKGFYPSDIAVEWESNGQPENNYKTTPPVLDSDGSFFLYSKLTVDKSRWQQGNVFSCSVMHEALHNHYTQKSLSLSPG
light 1: EIVLTQSPATLSLSPGERATLSCRASESVDNYGMSFMNWFQQKPGQPPKLLIHAASNQGSGVPSRFSGSGSGTDFTLTISSLEPEDFAVYFCQQSKEVPYTFGGGTKVEIKRTVAAPSVFIFPPSDEQLKSGTASVVCLLNNFYPREAKVQWKVDNALQSGNSQESVTEQDSKDSTYSLSSTLTLSKADYEKHKVYACEVTHQGLSSPVTKSFNRGEC
heavy 2: QVQLVQSGAEVKKPGASVKVSCKASGYTFTNYGMNWVRQAPGQGLEWMGWINTYTGESTYADDFEGRFVFSMDTSASTAYLQISSLKAEDTAVYYCARESLYDYYSMDYWGQGTTVTVSSASTKGPSVFPLAPSSKSTSGGTAALGCLVKDYFPEPVTVSWNSGALTSGVHTFPAVLQSSGLYSLSSVVTVPSSSLGTQTYICNVNHKPSNTKVDKRVEPKSCRKTHTCPRCPAPEAAGGPSVFLFPPKPKDTLMISRTPEVTCVVVDVSHEDPEVKFNWYVDGVEVHNAKTKPREEQYNSTYRVVSVLTVLHQDWLNGKEYKCKVSNKALPAPIEKTISKAKGQPREPQVYTLPPSREEMTKNQVSLTCLVKGFYPSDIAVEWESNGQPENNYKTTPPVLDSDGSFFLYSRLTVDKSRWQQGNVFSCSVMHEALHNHYTQKSLSLSPG
light 2: DIVMTQTPLSLSVTPGQPASISCKSSQSLLHSDAKTYLNWLLQKPGQPPERLIYLVSELDSGVPDRFSGSGSGTDFTLKISRVEAEDVGVYYCWQGTHFPYTFGGGTKVEIKRTVAAPSVFIFPPSDEQLKSGTASVVCLLNNFYPREAKVQWKVDNALQSGNSQESVTEQDSKDSTYSLSSTLTLSKADYEKHKVYACEVTHQGLSSPVTKSFNRGEC
For the molecule B2, the IC50 came to 4880 nM in assay [6], 710 nM in assay [7] and 2160 nM in assay [8].

B3: DART H (bispecific antibody)
chain 1: EIVLTQSPATLSLSPGERATLSCRASESVDNYGMSFMNWFQQKPGQPPKLLIHAASNQGSGVPSRFSGSGSGTDFTLTISSLEPEDFAVYFCQQSKEVPYTFGGGTKVEIKGGGSGGGGQVQLVQSGAEVKKPGASVKVSCKASGYTFTNYGMNWVRQAPGQGLEWMGWINTYTGESTYADDFEGRFVFSMDTSASTAYLQISSLKAEDTAVYYCARESLYDYYSMDYWGQGTTVTVSSGGCGGGEVAALEKEVAALEKEVAALEKEVAALEKGGGDKTHTCPPCPAPEAAGGPSVFLFPPKPKDTLMISRTPEVTCVVVDVSHEDPEVKFNWYVDGVEVHNAKTKPREEQYNSTYRVVSVLTVLHQDWLNGKEYKCKVSNKALPAPIEKTISKAKGQPREPQVYTLPPSREEMTKNQVSLWCLVKGFYPSDIAVEWESNGQPENNYKTTPPVLDSDGSFFLYSKLTVDKSRWQQGNVFSCSVMHEALHNHYTQKSLSLSPGK
chain 2: DIVMTQTPLSLSVTPGQPASISCKSSQSLLHSDAKTYLNWLLQKPGQPPERLIYLVSELDSGVPDRFSGSGSGTDFTLKISRVEAEDVGVYYCWQGTHFPYTFGGGTKVEIKGGGSGGGGQVQLVQSGAEVKKPGASVKVSCKASGYSFTSYWMNWVRQAPGQGLEWIGVIHPSDSETWLDQKFKDRVTITVDKSTSTAYMELSSLRSEDTAVYYCAREHYGTSPFAYWGQGTLVTVSSGGCGGGKVAALKEKVAALKEKVAALKEKVAALKE
chain 3: not shown
For B3, the values for the EC50 in assay [9] and in assay [12] were 2380 nM and 4530 nM, respectively. Also, the IC50 amounted to 2900 nM in assay [10], 3400 nM in assay [11] and 6210 nM in assay [13]. Also, the EC90 in assay [12] came to 22700 nM.

B4: hLAG-3 mAb 1 (1.4) IgG4 (P) (antibody, V domains shown)
VH: QVQLVQSGAEVKKPGASVKVSCKASGYTFTNYGMNWVRQAPGQGLEWMGWINTYTGESTYADDFEGRFVFSMDTSASTAYLQISSLKAEDTAVYYCARESLYDYYSMDYWGQGTTVTVSS
VL: DIVMTQTPLSLSVTPGQPASISCKSSQSLLHSDAKTYLNWLLQKPGQPPERLIYLVSELDSGVPDRFSGSGSGTDFTLKISRVEAEDVGVYYCWQGTHFPYTFGGGTKVEIK
As to B4, in [14], a half-maximal response (EC50) required 1010 nM. For the same molecule, in [15], the IC50 turned out to be 482 nM.
